Assay results as given in the DeepSol protein solubility set.

Assay: soluble on expression in E. coli; label from the status in PepcDB or PDB records

Sequence	soluble on expression in E. coli
KEENNFINLYTVKNPLKCKIVDKINLVRPNSPNEVYHLEINHNGLFKYLEGHTCGIIPYYNELDNNPNNQINKDHNIINTTNHTNHNNIALSHIKKQRCARLYSISSSNNMENLSVAIKIHKYEQTENAPNITNYGYCSGFIKNLKINDDIYLTGAHGYFNLPNDAIQKNTNFIFIATGTGISPYISFLKKLFAYDKNNLYNRNSNYTGYITIYYGVYNEDSILYLNELEYFQKMYPNNINIHYVFSYKQNSDATSFYVQDEIYKRKTEFLNLFNNYKCELYICGLKSIRYKVMDILKSHDQFDEKKKKRVHVEVY	soluble
MGSDKIHHHHHHMPLDVDHLRIPALPQLFMELQNALGQPHVSYERIAAIVSKDPRLTASLLKLVNSPHFGFSTPIETVSRAVAASGIRRVSALALGTFVLGLYRERPPLVVDIQGFWLHSVGCGIAARLLAQRLGRSDPERFFVAGLLHDMGWLALCSAAPDRAERIVRRIQSTGCSCEEAERLELGTTHAELGATVLKTWNLPAFLIDVVRSHHAPLATVGDNPPVDGALEVHIADAVVKGMGIGGALDARIAPLDLDAVDTLGLSGHDIAAMTNGLVEQSQALSRLLQGD	not soluble
MGEDTRVSYQDIKARVLAAIRDNTWPPGAMLPGEVALAQEYGCARATVNRAMRELAEEGILERKRKAGTRVKLAPARQARFSIPVVREEIEALGASYRYALVSRSEEATPKWLAAQLGLGAGDRVLHLVCMHYADERPFQLEQRWINLATVPQAAKKDFSQTGPNEWLVSEVPFTDIRLSFSACRGNRETAEFLGGNETDAHFTVERVTWLGERPVTYARLLFHAGYRMTTTL	not soluble
MSLKSALRLYNRASFKASHKVIEEYSTSFSLSTWLLSPRIRNDIRNLYAVVRIADEIVDGTAHAAGCSTAKIEEILDAYEIAVLAAPQQRFNTDLVLQAYGETARRCDFEQEHVIAFFASMRKDLKANTHDPDSFTTYVYGSAEVIGLLCLSVFNQGRTISKKRLEIMQNGARSLGAAFQKINFLRDLAEDQQNLGRFYFPKTSQGTLTKEQKEDLIADIRQDLAIAHDAFPEIPVQARIGVISAYLLFQKLTDRIEATPTADLLRERIRVPLHIKLSTLARATMKGLSMSIYRKNSEGHHHHHH	soluble
MKCRSKISLIAASLWLAAFSAQALEAKLKPEDLPLLVPEAQHATAAKRVTSRFTRSHYKQFNLDDQFSQAMFERYLEMLDYSRNIFTQADIDSFKAWSLQLDDQLKAGDNQIAYDLYNLSMEKRFERFQYALSLLDQEMTFDADESIELDRTKSPWPKDLKEINELWRQRVKYDALSLKLAGKEWPEIKETLDKRYNNAIKRLTQTKSEDVFQTYMNAFAREVDPHTSYLSPRNAEQFQSEMNLSLEGIGAVLQMTDDYTIIRSLVAGGPAALSKQLGEGDRIIGVGQEGEDVVDVVGWRLDDVVQLIKGPKGSKVKLLVLPEGKDAKSHVVTIVRDKIRLEDRAVKSEVIEKAGKKIGVLEVPSFYVGLAQDTEKLLAELKAKKVDGIIVDLRNNGGGALTEATALSGLFITSGPVVQVRDSYGRVNVNSDTDGSISYSGPMTVLINRYSASASEIFAAAMQDYGRAIILGENSFGKGTVQQHRSLNHIYDLFDKELGYVQYTIQKFYRIDGGSTQNKGVVPDIAYPTAIAPSETGESVEDNALPWDSIDKAKYERLNNFNTIIASLEAKHQQRVANDLEFGFIEQDIAKYRAEKDDNLLSLNEKVRKEESAKADEERLARINQRQKALGKSTYASLQDIPKDYEAPDAYLDESVNIMLDMISR	not soluble
MSLTKILIGQTAGFTGPAGEQVKEMTRGAQLYLDAVNRAGGVYGRRIELISEDDGFDANVSKQRAHTLLTDKQVFALFLSRGTPNTEAIMSEAHAVGAPMVAPSTGASIFFDRPDPLVFVVRAKYQTEIAELVHHFETLGLKRLALVNVNDSFGKDTEAGFTTATQHLPPSTHQIVTVDRLKPNIETATAEIGKFAPNAVILACAGTTAQALAEALTKHGTVSQMATLSNNSSTAFARSLGNMARGMMVTQVMPSPVRATSPIGRELTASAKAAGVMPSYGMMEGYASAKLLVEGLKRAGKAPTRASFVAGLEAAGTIDLGGLDIRNGRNNHKGSSFVEITVIGPHGTFIKEGHHHHHH	not soluble
MVMPESHIHNIPMEQCVLVALMTFALSYELIAQDLDEGCFYPERHKQIYNAIVELANENQPYDVVMVEQRLKSKNLLHVLGGEQYLKIMLAEAPSSFHSMEPYITQLKKLKAHRQVEWLGQRISSMAQDTTQPDVFAEAENILGQVDNQEQSDQGMSFEAALDMALTEMIEKAEAKDKQQFTGVKFNLKHLDELLGTVQKGHFCVVGGRPGSGKSTLAQMLALDTASSFGKGVLFISAEMDQSTLANRMISALGLIPYHNIHNAELYNGLMKDYADAKAAYQRLPIWIQPKQKPSLSEVRSYARRAKRRYKELGCIIVDYLQLLRDPSKKDRFQEVSSISRELKSMAKEFECPVIALVQLNREAEKGKRPKASDIKESGQIEQDADQIILVNPLTDPEDSTKPMGITELIVVKNRHGKRGAVRVLDYLETCRFRSVEEQAEP	not soluble
MADPNESGLSKSVEIGGISDKLDSMKLSKSKLTFTDLPMDALYECFKQLDYLERMPLRKVCRKFKNAVDGMDPGFKKIRICIYEPEAFDVEFDSNLFYFVKESGNATHYSKFNPRKMLKWKFGNGEDSLEVVMKFVTKMMNFSKYCCKLIERILKQSAYPNLKKIHLFGLNSRQTPSILRHFKPGKLEFLWSDSFNAETMKEMYKLDQWKMAKSQFENIKIRDQCAPGIPSTFGYLWNYHRYAKLVTVGKAVEIKNCLMKSTNFKKWEFCMGMSLDAARVFDPNASGFEISRDGGVKGTIRCLFKGHSVKIDFSPWKFEITKE	not soluble
MGSDKIHHHHHHMLEHGGNLHVASQQYGIAREYWLDLSTGINPQGYPVPEIPASAWHRLPEADPPLERIAASYYGAQRLLVTAGSQAAIQALPRLRQPCRVTVLGPMYAEHAHAWRQQGHQVSEIDYLPSAAMLAETDVLLVCNPNNPTARLLAPSTLLEWHQVLSEHDGWLVVDEAFMDSTPEHSLAAYSHHSGLIILRSLGKFFGLAGARVGFVLAETPLLTRMADLLGPWAVTGPSSIVAQAALADHAWQQHHRAKLLAESRQLADMLRQAGLPARKGCALFQWLKLEHAERLHVQLARQGVWTRHFPALRGVRIGLPSADGWQKLAVALKELQLQDLSD	not soluble
MNNYSGDIVFMSGGNEEDQLAQCQAYVQRHNIQQLVKEAIVVLCIHKPDNPVLFLKDHFEKLNEQRAQEGGNPDAADDDDIIVEPPKRSGGRRTGISAEPIKEDDTEYKKVVIPKDDATRRSLESAMRKNLLFAHLEEDEQKTMYDAMFPVEKSAGETIIEQGEEGDNFYVIDKGTVDVYVNHEYVLTINEGGSFGELALIYGTPRAATVIAKTDVKLWAIDRLTYRRILMGSVTKKRKMYDEFLSKVQILADLDQWERANVADALERCDFEPGTHVVEQGQPGDEFFIILEGEANVLQKRSDDAPFDVVGHLGMSDYFGEIALLLDRPRAATVVAKTHLKCIKLDRNRFERVMGPVREILKRDVSNYNSYVKLMT	soluble
SESQDIKALQKELEQFAKLLKQKRITLGYTQADVGLTLGVLFGKVFSQTTICRFEALQLSFKNMCKLRPLLQKWVEEADNNENLQEICKAETLVQARKRKRTSIENRVRGNLENLFLQCPKPTLQQISHIAQQLGLEKDVVRVWFCNRRQKGKRSSSDYAQ	soluble
MGSDKIHHHHHHMSLAVTYTRAMIGVQAPDVYIEVHISSGLPALTLVGLPETTVKEARDRVRSALINCGFTFPAKRITVNLAPADLPKEGGRYDLPIALAILAASEQIDGEKLNRYEFLGELGLSGTLRGVNGAIPAALEAIKAGRQLILPDDNKREMTLIPQGEALMAGHLLQVCAFLSGEEELLSCSDMTPVPQPAEDTLDLKDIIGQEQAKRALEIAAAGGHNLLLLGPPGTGKTMLASRLGNLMPPLSDEEALESAAINSLINIDATMTRWRARPFRAPHHSSSMAALVGGGSLPKPGEISLAHNGVLFLDELPEFERRVLDSLREPLESGEIIISRTRAKVCYPARVQLVAAMNPSPSGHYQGIHNRLPAQQILRYLSKLSGPFLDRFDLSIEVPLLPPGVLSQQHYQGESSATIRERVLIARQIQLKRANKINALLTSREIERHCKLEMADAAYLEDVMNKLGLSVRAWHRILKVARTIADLGDRDNIEKKHLAEALSYRCMDRLLIQLHKSLE	not soluble
MISRTFLLLFFVFSISKCEVQLGCTSPPLPDANGLCPDGYTLITAGGCCPDSDVYIISATTTTTTTTQAPTTTASSGSCQDKVNPKTGVSDCPGMKAYCNNPAYVSVMKDQCPKTCGYCSSSATTAGTCQDKINPSTGRSDCPGMAAYCNNPVYHDVMKDQCPKTCGYC	not soluble
MKTKVICLVRVSTQDQDYQRQISDLTKYSQARDFVIVDFISEKVSGTKRNEERNGIQELLKRARKKEFQKVIVQEISRLGRNPFQVQRVIEELAELSISVVVQNMNLETLDEGGNRNGFIDLMLSTAVHFSSIERSWIVNRIRSGQKNSKKKIGRPFNTFESKEAVLKKYAAVVRDLKSGISIRKVAKLNDLSTPTIQRVKKLMQEL	not soluble
MGSDKIHHHHHHVNYPKVYTSEQACPINLVGETGQAVQISIHAPSQYICANCERILPDWKRQSFLRVVIVLQQSRYQLVKKTTEVESEKERLREKFMRFGCDLAFNLRDRGYLTDLIDPRTGYPLLSHPGAIPHDDTAVVKALLNYPVIKNQCRVLVHPEWGAAVYPSILISEAPPILIEWVTKGIAAMHGWKEISH	not soluble
MGSDKIHHHHHHMKNLLITVFFLSLTLQLSAETGGSNAVIVEKTTASPAEKTPVYWQKMADGMSQALIKHFWGANFKGYENRFYFNYGSDLSNMTTNHYWPQAHAMDVMVDAYMRTGSKQYLNIYPLWWEGAPKFNFAGREEDPWWNVFVDDMEWIALAQIRMFESTKNTKYLKKARQTYDDWVWSTWGPEDEAPWFGGITWKTDVAKSKNACSNGPAALIAARLYNFYDAMGKKAGKPKQAYLNEAIKIYTWEKNNLFDRQTGAVYDSMNGEGKITKWVFSYNSGTFLGAAHELYKITGDKQYLADAVKAANFVIDHLSTNEGVLSDAEGGDGGLFHGIFFRYFVKLINDPALDSANYNKFRDYITHCATVMAEQGVNQKTMLYSGRWRKAPADDESVGLTSHLTGCMLMEAMCVLKHR	not soluble
MAHHHHHHMFSEPVYLTIGDEYEKRAVKPSKSRGRNFIVPVKRSPHITDAVFQKSFISLAVGDEYLPPPPGGTFRQPAEKKPGEPQPLPFKPPSRPHKSCGSGSYYGTFNEKNPPKHEPETTIAEVKKSGANAPAGTVRKPNLYTNPGKKGTYGYTGLTLGRAGEVQYISDPVGCCSGQRTHSPRTQAPFSAAVKCGGCFDEGPHGFSTVYGMNKPLPMRKVPPQRVLPPMKPWRPAGALVREITRHPEYQEDPYDLKEKRLREERLKEQSHKPWFPCGTDAYRHIYTYPVPYNPPPVV	not soluble
DQRQAEKALLESEQKFRSFIETTSEGFLILTPQLDINFSNTAICQLAGYSLTEMQGKSVLVFVTSESRKQLRQQLIMARSHSHLAAELTLMHKNGHHVFIRYKATVMADGNGFFTYITDIT	not soluble
MGSDKIHHHHHHMKIAILTTNQAADDSRLVATARKKGHSANLLDLRQMSIALRPSVADIYYQNELITHHFDAIIPRLNVSYTDYGINLLQQFICSNTYVSESPEALRLGRDKLKCLQHLLSKGLPFPTTAIAYTPDFFNAIMQQLQLPLVVKLIESTEGTGVFLARTHKEVDNLCKTFSLAGVSYLIQEFIAEAAGHDVRAFVVGNRVVAAMQRDSQDDDFRANVSLGAHSSAVTLSADEQELVLKATQSIGVHVAGVDFVRSNRGPLLLEINVSPDFTGEQGIEAITLRDVAADIIDYTVQHAEAFYQGRSKY	not soluble
